In the RNAGym collection of RNA variant scans (doi:10.7554/elife.80360) one finds self-cleavage data, which are given here for 38 variants.

The chains are these.
B1: Hairpin Ribozyme (parent)
chain: GUCCUCUUUCACGUGCGCGUGAAAGAGAGAAGUGAACCAGAGAAACACACGUUGUGGUAUAUUACCUGGUA

The variants in this series derive from B1. Nature of the series: self-cleavage, relative activity (ratio to wild type); higher = more cleavage; co-transcriptional.
As for GUCCUCUUUCACGUGCGCGUGAAAGAGAGAAGUGAAGCAGAGAAACACACGGUGUGGUAUAUUACCUGGUA [C37G U52G], the self-cleavage was determined as 0.377.
The result for GUCCUCUUUCACGUGCGCGUGAAAGAGAGAAGUGAAGCAGAGAAACACACGUUGUGGGAUAUUACCUGGUA [C37G U58G] reads 0.136; that for GUCCUCUUUCACGUGCGCGUGAAAGAGAGAAGUGAAUCAGAGAAACGCACGUUGUGGUAUAUUACCUGGUA [C37U A47G], 0.167; that for GUCCUCUUUCACGUGCGCGUGAAAGAGAGAAGUGAAUCAGAGAAACUCACGUUGUGGUAUAUUACCUGGUA [C37U A47U], 0.177.
Take GUCCUCUUUCACGUGCGCGUGAAAGAGAGAAGUGAAUCAGAGACACACACGUUGUGGUAUAUUACCUGGUA [C37U A44C]: the self-cleavage came to 0.1.
To GUCCUCUUUCACGUGCGCGUGAAAGAGAGAAGUGAAGCAGAGAAACACACGUUGUGGUAUAUUACCUGGGA [C37G U70G] belongs 0.405; to GUCCUCUUUCACGUGCGCGUGAAAGAGAGAAGUGAAUCAGAGAAACACACGUUGUAGUAUAUUACCUGGUA [C37U G56A], 0.156.
To GUCCUCUUUCACGUGCGCGUGAAAGAGAGAAGUGAAUCAGAGAAACACACGUUGUGGUAUAUUACCUCGUA [C37U G68C] belongs 0.139; to GUCCUCUUUCACGUGCGCGUGAAAGAGAGAAGUGAAUCAGAGAAACACACGUUGUGGUAUAUUACCUUGUA [C37U G68U], 0.193; to GUCCUCUUUCACGUGCGCGUGAAAGAGAGAAGUGAAUCUGAGAAACACACGUUGUGGUAUAUUACCUGGUA [C37U A39U], 0.208.
To GUCCUCUUUCACGUGCGCGUGAAAGAGAGAAGUGAAUCAGAGAAGCACACGUUGUGGUAUAUUACCUGGUA [C37U A45G] belongs 0.0764; to GUCCUCUUUCACGUGCGCGUGAAAGAGAGAAGUGAAGCAGAGAAACACACGUAGUGGUAUAUUACCUGGUA [C37G U53A], 0.245.
As for GUCCUCUUUCACGUGCGCGUGAAAGAGAGAAGUGAAUGAGAGAAACACACGUUGUGGUAUAUUACCUGGUA [C37U C38G], the self-cleavage was determined as 0.0604.
To GUCCUCUUUCACGUGCGCGUGAAAGAGAGAAGUGAAUUAGAGAAACACACGUUGUGGUAUAUUACCUGGUA [C37U C38U] belongs 0.201; to GUCCUCUUUCACGUGCGCGUGAAAGAGAGAAGUGAAUCAGAGAAACACACAUUGUGGUAUAUUACCUGGUA [C37U G51A], 0.967; to GUCCUCUUUCACGUGCGCGUGAAAGAGAGAAGUGAAUCAGAGAAACACACCUUGUGGUAUAUUACCUGGUA [C37U G51C], 0.689.
To GUCCUCUUUCACGUGCGCGUGAAAGAGAGAAGUGAAUCAGAGAAAGACACGUUGUGGUAUAUUACCUGGUA [C37U C46G] belongs 0.13.
The result for GUCCUCUUUCACGUGCGCGUGAAAGAGAGAAGUGAAUCAGAGAAAAACACGUUGUGGUAUAUUACCUGGUA [C37U C46A] reads 0.121; that for GUCCUCUUUCACGUGCGCGUGAAAGAGAGAAGUGAAGCAGAGAAACACACGUUGUGGUAUAAUACCUGGUA [C37G U62A], 0.153; that for GUCCUCUUUCACGUGCGCGUGAAAGAGAGAAGUGAAUCAGAGGAACACACGUUGUGGUAUAUUACCUGGUA [C37U A43G], 0.146.
On to GUCCUCUUUCACGUGCGCGUGAAAGAGAGAAGUGAAGCAGAGAAACACACGUUGCGGUAUAUUACCUGGUA [C37G U55C], for which the self-cleavage was 0.178.
To GUCCUCUUUCACGUGCGCGUGAAAGAGAGAAGUGAAGCAGAGAAACACACGUUGAGGUAUAUUACCUGGUA [C37G U55A] belongs 0.226.
The result for GUCCUCUUUCACGUGCGCGUGAAAGAGAGAAGUGAAUCAGAGAAACACACGUUGUGGUAUAUUACCUGGUC [C37U A71C] reads 0.93; that for GUCCUCUUUCACGUGCGCGUGAAAGAGAGAAGUGAAUCAGAGAAACACACGUUGUGGUAUAUUACCUGGUU [C37U A71U], 0.557.
For the variant GUCCUCUUUCACGUGCGCGUGAAAGAGAGAAGUGAAUCAGAGAAACACACGUUGUGGUCUAUUACCUGGUA [C37U A59C], the self-cleavage was 0.162.
Consider GUCCUCUUUCACGUGCGCGUGAAAGAGAGAAGUGAAUCAGAGAAACACACGUUGUGGUGUAUUACCUGGUA [C37U A59G], for which the self-cleavage was determined as 0.152.
As for GUCCUCUUUCACGUGCGCGUGAAAGAGAGAAGUGAAUCAGAGAAACACUCGUUGUGGUAUAUUACCUGGUA [C37U A49U], the self-cleavage worked out at 0.211.
To GUCCUCUUUCACGUGCGCGUGAAAGAGAGAAGUGAAGCAGAGAAACACACGUUGUGGUAUAUUACCUUGUA [C37G G68U] belongs 0.189; to GUCCUCUUUCACGUGCGCGUGAAAGAGAGAAGUGAAUCAGAGAAACACACGUUGUGGUAUGUUACCUGGUA [C37U A61G], 0.126.
On to GUCCUCUUUCACGUGCGCGUGAAAGAGAGAAGUGAAUCAGAGAAACACACGUUGUGGUAUCUUACCUGGUA [C37U A61C], for which the self-cleavage was 0.146.
To GUCCUCUUUCACGUGCGCGUGAAAGAGAGAAGUGAAUCAGAGAAACACACGUUGUGGUAUUUUACCUGGUA [C37U A61U] belongs 0.248; to GUCCUCUUUCACGUGCGCGUGAAAGAGAGAAGUGAAUCAGAGAAACACACGAUGUGGUAUAUUACCUGGUA [C37U U52A], 0.672.
To GUCCUCUUUCACGUGCGCGUGAAAGAGAGAAGUGAAUCAUAGAAACACACGUUGUGGUAUAUUACCUGGUA [C37U G40U] belongs 0.178; to GUCCUCUUUCACGUGCGCGUGAAAGAGAGAAGUGAAUCAAAGAAACACACGUUGUGGUAUAUUACCUGGUA [C37U G40A], 0.183; to GUCCUCUUUCACGUGCGCGUGAAAGAGAGAAGUGAAUCAGUGAAACACACGUUGUGGUAUAUUACCUGGUA [C37U A41U], 0.969.
With GUCCUCUUUCACGUGCGCGUGAAAGAGAGAAGUGAAUCAGAGAAACAGACGUUGUGGUAUAUUACCUGGUA [C37U C48G], the self-cleavage was 0.0435.
The result for GUCCUCUUUCACGUGCGCGUGAAAGAGAGAAGUGAAUCAGAGAAACACACGUUGUGGUAUAUUCCCUGGUA [C37U A64C] reads 0.205; that for GUCCUCUUUCACGUGCGCGUGAAAGAGAGAAGUGAAUCAGAUAAACACACGUUGUGGUAUAUUACCUGGUA [C37U G42U], 0.27.
